# Reference: patent US10662230B2, “Cyclic RGD cell-binding motif and uses thereof” (Spiber Technologies AB, priority 2015, dated 2020)
# “Also recorded” adds a separate entry of the source.
# B1: FNCC-silk: recombinant spider silk protein 4RepCT with N-terminal cysteine-looped RGD motif CTGRGDSPAC (SEQ ID NO: 10) (protein)
# chain: GPNSCTGRGDSPACGSASGQGGYGGLGQGGYGQGAGSSAAAAAAAAAAAAGGQGGQGQGGYGQGSGGSAAAAAAAAAAAAAAAGRGQGGYGQGSGGNAAAAAAAAAAAAAAAGQGGQGGYGRQSQGAGSAAAAAAAAAAAAAAGSGQGGYGGQGQGGYGQSSASASAAASAASTVANSVSRLSSPSAVSRVSSAVSSLVSNGQVNMAALPNIISNISSSVSASAPGASGCEVIVQALLEVITALVQIVSSSSVGYINPSAVNQITNVVANAMAQVMG
# modifications: cyclic disulfide loop; Fusion protein; DISULFID (5)..(14)
# Tested on: Normal human epidermal keratinocytes (KC)
# Experiment: Formation of focal adhesions (F-actin/vinculin staining), keratinocytes
# Type: cell-based
# Method: Cells were harvested at passage 3-8, seeded at 3500/cm^2 and allowed to adhere onto films for 20 min, 1 or 3 hours in chamber slides. After gentle washing, cells were fixed with 4% paraformaldehyde, permeabilized with 0.1% Triton X-100 in PBS, and blocked with 1% bovine serum albumin (BSA, AppliChem) in PBS.
# Primary antibody were used at the following concentrations in 1% BSA: mouse anti human vinculin (Sigma V9131) at 9.5 μg/ml, mouse-anti human beta1-integrin (activated conformation, clone HUTS-4) at 3.3 μg/mL, or mouse-anti human alpha5-integrin (ligand bound conformation, clone SNAKA-51) at 2.5 μg/mL, both Millipore.
# Secondary antibody was AlexaFlour488 goat anti mouse IgG (H+L), cross adsorbed (Invitrogen), used at 1:500. Phalloidin-AlexaFluor594 (Life Technologies) were used at 1:40 to detect filamentous actin. DAPI was used for nuclear staining. Slides were mounted in Fluorescence mounting medium (Dako, Copenhagen).
# For microscopic analysis of cell adhesion (formation of focal adhesions and stress fibers), a confocal microscope was used (Carl Zeiss LSM 710) at 10× and 63× magnification.
# Quality of focal adhesions were graded from 1-4 regarding presence of small and dim focal adhesion (=1p), small and distinct focal adhesions (=2p), abundant focal adhesions (=3p) and large and bright focal adhesions (=4p), and multiplied with the portion of positive cells expressing this specific type of focal adhesions (0-4, where 0≈none of, 1≈one fourth of, 2≈half of, 3≈three fourths of, and 4≈all of the focal adhesion-positive cells.)
# Formation of focal adhesions within the cells was analyzed after 3 h by staining for F-actin in combination with vinculin, which is one of the major components of the focal adhesion complex. Co-staining of F-actin and vinculin is thus a sign of integrin-involved, well established binding of cells to the underlying substrate. Focal adhesions appear as yellow-greenish elongations of the F-actin filaments, often situated close to the cell membrane.
# The results from the analysis of formation and characterization of focal adhesions in KC after adherence for 3 h onto films of WT-silk (SEQ ID NO: 2) or silk functionalized with FNCC (SEQ ID NO: 13), FNVS (SEQ ID NO: 15), FNSS (SEQ ID NO: 14) or RGD (SEQ ID NO: 16) is presented in FIG. 7. Slides were scanned with a confocal microscope at 10× for overview (FIG. 7a) and at 63× for details (FIG. 7b). Two types of grading of the focal adhesions in the cells were performed.
molecule,measurement,setting,value
B1,time after seeding at which prominent focal adhesions appeared,,20 min
same,percentage of cells exhibiting focal adhesions,"3 h adherence, 10× magnification","significant increase in percentage of cells expressing focal adhesions on FNCC-silk, compared to RGD and WT"
same,quality (grading) of focal adhesions,"3 h adherence, 63× magnification",tendency of more prominent focal adhesions in cells attached to FNCC-silk compared to the other silk types; also recorded: almost only prominent focal adhesions
